Results taken from publication PMC4497506.

Tests used:
[1] = biological target: hexahistidine-tagged soluble four-domain CD4 (UniProt P01730); test: SPR
[2] = biological target: mAb F105
[3] = biological target: HIV-1 YU-2 gp120 S375A (HIV-1 YU-2); test: ITC
[4] = biological target: HIV-1 YU-2 gp120 F210A (HIV-1 YU-2); test: SPR
[5] = biological target: HIV-1 YU-2 gp120 M426A (HIV-1 YU-2); test: SPR
[6] = biological target: wild-type HIV-1 YU-2 Env gp120, soluble monomeric (HIV-1 YU-2) (UniProt P35961); test: SPR
[7] = biological target: HIV-1 YU-2 gp120 W112A (HIV-1 YU-2); test: SPR
[8] = biological target: HIV-1 YU-2 gp120 I109A (HIV-1 YU-2); test: SPR
[9] = biological target: HIV-1 YU-2 gp120 T257A (HIV-1 YU-2); test: ITC

HIV-1 YU-2 gp120 F210A (natural protein)
Kd [1]: 0.23 µM

HIV-1 YU-2 gp120 I109A (natural protein)
Kd [1]: 0.0068 µM

HIV-1 YU-2 gp120 M426A (natural protein)
Kd [1]: 0.059 µM

HIV-1 YU-2 gp120 S375A (natural protein)
Kd [1]: 0.0062 µM

HIV-1 YU-2 gp120 S375H (natural protein)
Kd [1]: 0.0052 µM

HIV-1 YU-2 gp120 S375W (natural protein)
Kd [1]: 0.0037 µM

HIV-1 YU-2 gp120 T257A (natural protein)
Kd [1]: 0.0102 µM

HIV-1 YU-2 gp120 T257R (natural protein)
Kd [1]: 0.021 µM

HIV-1 YU-2 gp120 W112A (natural protein)
Kd [2]: 0.083 µM
Kd [1]: 0.095 µM

peptide 1 (sequence-minimized peptide triazole Ile-Asn-Asn-Ile-X-Trp, X = ferrocenyl-triazolePro)
dH [3]: -9.1 kcal/mol
IC50 [4]: 0.2 µM

peptide 2 (peptide 1 with Trp replaced by Tyr)
IC50 [4]: 4.1 µM
IC50 [5]: 5.1 µM
IC50 [6]: 3 µM
IC50 [7]: > 50 µM
IC50 [8]: 3.1 µM

peptide 4 (peptide 1 with N-methylated indole at Trp 6)
dH [9]: -11 kcal/mol
stoichiometry N [9]: 1.15
dH [3]: -9.3 kcal/mol
stoichiometry N [3]: 1.13
